# ± gives the uncertainty stated by the source.
# Test: self-splicing fitness, log relative to wild type (ln ratio); higher = more splicing; Tetrahymena group I intron in knt gene, E. coli kanamycin selection, DiMSum; sequences stand for … in CUCUCU…GGAGGGAAAAGUUAUCAGGCAUGCACCUGGUAGCUAGUCUUUAAACCAAUAGAUUGCAUCGGUUUAAAAGGCAAGACCGUCAAAUUGCGGGAAAGGGGUCAACAGCCGUUCAGUACCAAGUCUCAGGGGAAACUUUGAGAUGGCCUUGCAAAGGGUAUGGUAAUAAGCUGACGGACAUGGUCCUAACCACGCAGCCAAGUCCUAAGUCAACAGAUCUUCUGUUGAUAUGGAUGCAGUUCACAGACUAAAUGUCGGUCGGGGAAGAUGUAUUCUUCUCAUAAGAUAUAGUCGGACCUCUCCUUAAUGGGAGCUAGCGGAUGAAGUGAUGCAACACUGGAGCCGCUGGGAACUAAUUUGUAUGCGAAAGUAUAUUGAUUAGUUUUGGAGUACUCGUGGUCG
# In short: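 DiMSum derived fitness as the error-weighted combination of fold changes across replicates, kanamycin versus no kanamycin, normalised to wild type. E. coli BL21(DE3) held the library, which randomised all eight P1ex-region intron nucleotides within the knt kanamycin-resistance gene on pET-22b(+). Six replicate transformations grew overnight at 37°C or 30°C on LB agar with or without 25 μg/mL kanamycin, also containing 100 μg/mL carbenicillin, 50 μM IPTG and 0.2% rhamnose, and pooled colonies were amplicon-sequenced on an Illumina HiSeq 2500.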
Sequence,self-splicing fitness (ln) (30 °C),self-splicing fitness (ln) (37 °C)
AACGAGCAAUAUUACGGUUG,-3.98 ± 0.15,-2.37 ± 0.13
CAUUAGCAAUAUUACGUUGG,-2.05 ± 0.085,-1.03 ± 0.1
CGCUAGCAAUAUUACGAACC,-2.92 ± 0.2,-0.219 ± 0.16
UCUCAGCAAUAUUACGUUAC,–,-1.86 ± 0.36
AUCGAGCAAUAUUACGAUUG,-4.49 ± 0.46,-3.32 ± 0.26
GAGGAGCAAUAUUACGCGCU,-3.28 ± 0.16,-2.06 ± 0.16
CACGAGCAAUAUUACGGCGU,-2.68 ± 0.21,-2.53 ± 0.26
GUGCAGCAAUAUUACGUCCC,-0.912 ± 0.35,-0.124 ± 0.26
CUCCAGCAAUAUUACGGAAU,-4.1 ± 0.21,-2.27 ± 0.16
CAGUAGCAAUAUUACGUAUC,-3.18 ± 0.33,-2.2 ± 0.25
CCCUAGCAAUAUUACGCACU,-2.43 ± 0.15,-2.64 ± 0.24
GCCAAGCAAUAUUACGAGCC,-3.51 ± 0.43,-1.99 ± 0.43
UCUCAGCAAUAUUACGAUUU,-1.99 ± 0.093,-1.1 ± 0.12
AGGUAGCAAUAUUACGAUAU,-1.16 ± 0.014,-0.423 ± 0.034
ACGCAGCAAUAUUACGCUUA,-0.737 ± 0.089,-0.286 ± 0.099
CGCUAGCAAUAUUACGUUAU,-4.99 ± 0.32,-3.36 ± 0.26
AAAAAGCAAUAUUACGAUGA,-0.913 ± 0.064,-0.139 ± 0.084
GCCUAGCAAUAUUACGUCGA,-1.67 ± 0.17,-1.6 ± 0.21
CUACAGCAAUAUUACGGCGA,-2.97 ± 0.39,-2.91 ± 0.27
UCACAGCAAUAUUACGUCAG,-1.59 ± 0.077,-0.829 ± 0.1
UACCAGCAAUAUUACGCGUC,-2.06 ± 0.11,-1.13 ± 0.1
AGGCAGCAAUAUUACGUCGC,-2.48 ± 0.12,-2.07 ± 0.14
AUAAAGCAAUAUUACGUGAG,-1.27 ± 0.076,-1.07 ± 0.12
CGAGAGCAAUAUUACGAGAG,-3.58 ± 0.35,-0.712 ± 0.31

Sequence,self-splicing fitness (ln) (30 °C),self-splicing fitness (ln) (37 °C)
UCAGAGCAAUAUUACGUUUG,-4.06 ± 0.24,-2.36 ± 0.26
ACCUAGCAAUAUUACGAUAU,-1.58 ± 0.092,-0.443 ± 0.12
CGGUAGCAAUAUUACGCCAC,-3.5 ± 0.39,-2.03 ± 0.27
AGGGAGCAAUAUUACGUACG,-3.78 ± 0.4,-2.2 ± 0.42
GAAUAGCAAUAUUACGGAGC,-3.44 ± 0.26,-1.77 ± 0.21
AAAAAGCAAUAUUACGCCCU,0.324 ± 0.1,0.202 ± 0.12
AGAUAGCAAUAUUACGCUCG,-0.0589 ± 0.11,-0.37 ± 0.12
CAGCAGCAAUAUUACGUGCC,-3.2 ± 0.17,-2.05 ± 0.21
CACCAGCAAUAUUACGGCCG,0.194 ± 0.066,0.251 ± 0.087
GAGCAGCAAUAUUACGCGCA,-0.638 ± 0.1,0.461 ± 0.12
UCGGAGCAAUAUUACGAUUA,–,0.203 ± 0.28
GAAAAGCAAUAUUACGCCCG,-0.583 ± 0.14,-0.75 ± 0.21
GUUUAGCAAUAUUACGUCUC,-0.593 ± 0.19,0.43 ± 0.24
GCGCAGCAAUAUUACGACUC,-0.32 ± 0.17,0.304 ± 0.15
CACCAGCAAUAUUACGAUCG,-0.326 ± 0.059,0.608 ± 0.085
CUGAAGCAAUAUUACGGAGG,-3.67 ± 0.21,-1.81 ± 0.24
CUAAAGCAAUAUUACGCGCG,0.227 ± 0.072,-0.176 ± 0.095
AUAAAGCAAUAUUACGUCGU,-0.554 ± 0.046,0.314 ± 0.064
UGUGAGCAAUAUUACGCUAG,-3.43 ± 0.32,-1.59 ± 0.2
GGCCAGCAAUAUUACGUUCU,-0.00519 ± 0.082,0.108 ± 0.089
GCAAAGCAAUAUUACGUUCG,-1.51 ± 0.08,-0.192 ± 0.12
GAAAAGCAAUAUUACGAAGG,-3.27 ± 0.24,-3.01 ± 0.37
UACGAGCAAUAUUACGAUGA,-2.05 ± 0.19,-2.41 ± 0.2
AGGGAGCAAUAUUACGAAUU,–,-0.525 ± 0.18
